The data set deals with the molecule itself. Description: FRET or BRET.

B1: Glucose oxidase (from Aspergillus niger) (enzyme, UniProt P13006 17-605, looked up)
chain: LPHYIRSNGIEASLLTDPKDVSGRTVDYIIAGGGLTGLTTAARLTENPNISVLVIESGSYESDRGPIIEDLNAYGDIFGSSVDHAYETVELATNNQTALIRSGNGLGGSTLVNGGTWTRPHKAQVDSWETVFGNEGWNWDNVAAYSLQAERARAPNAKQIAAGHYFNASCHGVNGTVHAGPRDTGDDYSPIVKALMSAVEDRGVPTKKDFGCGDPHGVSMFPNTLHEDQVRSDAAREWLLPNYQRPNLQVLTGQYVGKVLLSQNGTTPRAVGVEFGTHKGNTHNVYAKHEVLLAAGSAVSPTILEYSGIGMKSILEPLGIDTVVDLPVGLNLQDQTTATVRSRITSAGAGQGQAAWFATFNETFGDYSEKAHELLNTKLEQWAEEAVARGGFHNTTALLIQYENYRDWIVNHNVAYSELFLDTAGVASFDVWDLLPFTRGYVHILDKDPYLHHFAYDPQYFLNELDLLGQAAATQLARNISNSGAMQTYFAGETIPGDNLAYDADLSAWTEYIPYHFRPNYHGVGTCSMMPKEMGGVVDNAARVYGVQGLRVIDGSIPPTQMSSHVMTVFYAMALKISDAILEDYASMQ
modifications: amine reactive dye Alexa Fluor 488 on one population and Alexa Fluor 532 on the other
For the protein B1, the binding result is “binds”.

The values above are taken from doi:10.1101/2021.09.03.458882 (bioRxiv, 2021).
